Data taken from PMC2367706.
Where two headings read alike, the source gives them in different places.

Experiments:
Experiment in all cases: EMSA
GST:CD+HD [1] = target: T1, GST:CD+HD (UniProt Q01826 255-763)
T1 sequence: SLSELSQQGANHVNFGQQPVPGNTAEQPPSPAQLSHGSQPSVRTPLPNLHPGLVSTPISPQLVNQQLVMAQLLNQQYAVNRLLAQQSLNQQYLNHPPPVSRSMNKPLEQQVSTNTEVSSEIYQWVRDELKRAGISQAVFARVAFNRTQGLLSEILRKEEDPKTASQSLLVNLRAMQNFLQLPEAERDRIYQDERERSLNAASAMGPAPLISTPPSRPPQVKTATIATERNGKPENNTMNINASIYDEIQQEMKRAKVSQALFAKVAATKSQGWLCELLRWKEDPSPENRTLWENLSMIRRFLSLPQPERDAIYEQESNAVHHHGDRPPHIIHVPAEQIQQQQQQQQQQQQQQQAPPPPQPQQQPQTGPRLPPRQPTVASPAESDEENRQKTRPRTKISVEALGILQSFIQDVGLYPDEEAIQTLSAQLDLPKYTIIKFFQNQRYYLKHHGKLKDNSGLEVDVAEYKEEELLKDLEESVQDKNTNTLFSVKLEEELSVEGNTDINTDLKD

GST:HD = target: T2, GST:HD (UniProt Q01826 640-763)
T2 sequence: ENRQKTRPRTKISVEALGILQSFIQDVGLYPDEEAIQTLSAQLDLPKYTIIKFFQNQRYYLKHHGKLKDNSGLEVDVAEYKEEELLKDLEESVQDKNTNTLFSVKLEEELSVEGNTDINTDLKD

GST:CD+HD [2] = target: T1, GST:CD+HD; remark: listed apart in the source

B1: probe 3 (dsDNA)
DNA 1: TATTAGCAATAATATTAGCAATAA
DNA 2: TTATTGCTAATATTATTGCTAATA
Kd (GST:CD+HD [1]): 50 nM

B2: probe 10 (dsDNA)
DNA 1: TATTAGTAATACTATTAGTAATAC
DNA 2: GTATTACTAATAGTATTACTAATA
Kd (GST:CD+HD [1]): 20 nM | Kd (GST:HD): 200 nM

B3: probe 9 (dsDNA)
DNA 1: TATTAGTAATCATATTAGTAATCA
DNA 2: TGATTACTAATATGATTACTAATA
Kd (GST:CD+HD [1]): 10 nM

B4: CSBS dimer (probe 1) (dsDNA)
DNA 1: TATTAGTAATAATATTAGTAATAA
DNA 2: TTATTACTAATATTATTACTAATA
Kd (GST:HD): 200 nM | Kd (GST:CD+HD [2]): 10 nM

B5: probe 13 (IgH MAR core dimer) (dsDNA)
DNA 1: AATTTCTAATATAATTTCTAATAT
DNA 2: ATATTAGAAATTATATTAGAAATT
Kd (GST:CD+HD [1]): 10 nM

B6: probe 5 (dsDNA)
DNA 1: TATTAATAATAATATTAATAATAA
DNA 2: TTATTATTAATATTATTATTAATA
Kd (GST:CD+HD [1]): 10 nM
